Several values for one entry are separate records, joined by “and”; a condition that tells them apart may be missing. Identical values can stand only once.
Assays:
[1] = target: mouse neonatal Fc receptor (mFcRn) (mouse) (UniProt Q61559); experiment: SPR
CD20 on Raji cells [2] = target: CD20 on Raji cells (UniProt P11836); experiment: flow cytometry, Raji cells; […]
CD20 on Raji cells [3] = target: CD20 on Raji cells (UniProt P11836); experiment: flow cytometry, Raji cells; 10 µg/mL
CD20 on Raji cells [4] = target: CD20 on Raji cells (UniProt P11836); experiment: flow cytometry, Raji cells; 2.5 µg/mL
CD20 on Raji cells [5] = target: CD20 on Raji cells (UniProt P11836); experiment: flow cytometry, Raji cells; 0.625 µg/mL
CD20 on Raji cells [6] = target: CD20 on Raji cells (UniProt P11836); experiment: flow cytometry, Raji cells; 0.00061 µg/mL
CD20 on Raji cells [7] = target: CD20 on Raji cells (UniProt P11836); experiment: flow cytometry, Raji cells; 0.15625 µg/mL
CD20 on Raji cells [8] = target: CD20 on Raji cells (UniProt P11836); experiment: flow cytometry, Raji cells; 0.009766 µg/mL
CD20 on Raji cells [9] = target: CD20 on Raji cells (UniProt P11836); experiment: flow cytometry, Raji cells; 0.039063 µg/mL
[10] = target: FcγRIIIaV with a hexahistidine tag (R&D Systems) (human) (UniProt P08637); experiment: BLI, His-FcγRIIIaV on anti-penta-His sensor, steady-state model
UniProt P08637, sequence (P08637 17-208 F176V limits assumed): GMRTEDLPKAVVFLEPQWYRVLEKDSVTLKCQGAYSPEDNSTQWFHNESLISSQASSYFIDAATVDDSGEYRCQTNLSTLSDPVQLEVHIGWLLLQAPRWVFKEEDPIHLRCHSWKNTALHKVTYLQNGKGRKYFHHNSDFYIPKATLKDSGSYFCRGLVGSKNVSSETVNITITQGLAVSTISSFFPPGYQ

[11] = target: human neonatal Fc receptor (hFcRn), biotinylated (human) (UniProt P55899); experiment: SPR, biotinylated hFcRn on streptavidin chip, IgG injected, pH 6.0
UniProt P55899, sequence (P55899 24-297 limits assumed): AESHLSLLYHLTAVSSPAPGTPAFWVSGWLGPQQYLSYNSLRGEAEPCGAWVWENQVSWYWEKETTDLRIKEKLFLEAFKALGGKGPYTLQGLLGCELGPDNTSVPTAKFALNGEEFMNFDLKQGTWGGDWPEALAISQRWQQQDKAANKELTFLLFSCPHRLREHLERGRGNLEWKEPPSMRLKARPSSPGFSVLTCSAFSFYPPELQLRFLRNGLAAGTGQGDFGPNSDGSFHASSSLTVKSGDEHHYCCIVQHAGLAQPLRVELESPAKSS

[12] = target: His-tagged FcγRIIb (R&D Systems) (human) (UniProt P31994); experiment: competition ELISA, His-FcγRIIb, competitor coated HZ 15C1; 1000 µg/ml
UniProt P31994, sequence (P31994 46-217 limits assumed): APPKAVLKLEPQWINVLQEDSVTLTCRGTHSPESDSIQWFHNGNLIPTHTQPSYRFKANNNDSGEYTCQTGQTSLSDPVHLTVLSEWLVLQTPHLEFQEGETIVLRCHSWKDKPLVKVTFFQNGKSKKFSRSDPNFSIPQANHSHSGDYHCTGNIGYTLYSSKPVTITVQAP

[13] = target: His-tagged FcγRIIb (R&D Systems) (human) (UniProt P31994); experiment: competition ELISA, His-FcγRIIb, competitor coated HZ 15C1; 3000 µg/ml
[14] = target: His-tagged FcγRIIb (R&D Systems) (human) (UniProt P31994); experiment: competition ELISA, His-FcγRIIb, competitor coated HZ 15C1; 4.12 µg/ml
[15] = target: His-tagged FcγRIIb (R&D Systems) (human) (UniProt P31994); experiment: competition ELISA, His-FcγRIIb, competitor coated HZ 15C1; 12.35 µg/ml
[16] = target: His-tagged FcγRIIb (R&D Systems) (human) (UniProt P31994); experiment: competition ELISA, His-FcγRIIb, competitor coated HZ 15C1; 37.04 µg/ml
[17] = target: His-tagged FcγRIIb (R&D Systems) (human) (UniProt P31994); experiment: competition ELISA, His-FcγRIIb, competitor coated HZ 15C1; 111.11 µg/ml
[18] = target: His-tagged FcγRIIb (R&D Systems) (human) (UniProt P31994); experiment: competition ELISA, His-FcγRIIb, competitor coated HZ 15C1; 333.33 µg/ml
[19] = target: His-tagged FcγRI (R&D Systems) (human) (UniProt P12314); experiment: competition ELISA, His-FcγRI, competitor coated anti-idiotype antibody; 2 µg/ml
UniProt P12314, sequence (P12314 16-288 limits assumed): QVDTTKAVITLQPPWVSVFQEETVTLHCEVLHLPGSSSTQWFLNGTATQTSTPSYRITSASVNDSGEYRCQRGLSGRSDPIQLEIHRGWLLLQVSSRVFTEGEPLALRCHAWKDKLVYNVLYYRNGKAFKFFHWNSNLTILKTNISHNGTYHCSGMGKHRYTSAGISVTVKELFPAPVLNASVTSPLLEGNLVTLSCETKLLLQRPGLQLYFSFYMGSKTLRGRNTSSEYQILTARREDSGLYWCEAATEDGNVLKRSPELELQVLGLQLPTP

[20] = target: His-tagged FcγRI (R&D Systems) (human) (UniProt P12314); experiment: competition ELISA, His-FcγRI, competitor coated anti-idiotype antibody; 10 µg/ml
[21] = target: His-tagged FcγRI (R&D Systems) (human) (UniProt P12314); experiment: competition ELISA, His-FcγRI, competitor coated anti-idiotype antibody; 50 µg/ml
[22] = target: His-tagged FcγRI (R&D Systems) (human) (UniProt P12314); experiment: competition ELISA, His-FcγRI, competitor coated anti-idiotype antibody; 0.4 µg/ml
[23] = target: His-tagged FcγRI (R&D Systems) (human) (UniProt P12314); experiment: competition ELISA, His-FcγRI, competitor coated anti-idiotype antibody; 0.08 µg/ml
[24] = target: His-tagged FcγRI (R&D Systems) (human) (UniProt P12314); experiment: competition ELISA, His-FcγRI, competitor coated anti-idiotype antibody; 0.016 µg/ml
[25] = target: His-tagged FcγRI (R&D Systems) (human) (UniProt P12314); experiment: competition ELISA, His-FcγRI, competitor coated anti-idiotype antibody; 0.0006 µg/ml
[26] = target: His-tagged FcγRI (R&D Systems) (human) (UniProt P12314); experiment: competition ELISA, His-FcγRI, competitor coated anti-idiotype antibody; 0.0032 µg/ml
[27] = target: His-tagged FcγRIIa (FcγRIIaR, R&D Systems) (human) (UniProt P12318); experiment: competition ELISA, His-FcγRIIaR, competitor coated HZ 15C1; concentration cell 2.22185
UniProt P12318, sequence (P12318 36-218 H167R limits assumed): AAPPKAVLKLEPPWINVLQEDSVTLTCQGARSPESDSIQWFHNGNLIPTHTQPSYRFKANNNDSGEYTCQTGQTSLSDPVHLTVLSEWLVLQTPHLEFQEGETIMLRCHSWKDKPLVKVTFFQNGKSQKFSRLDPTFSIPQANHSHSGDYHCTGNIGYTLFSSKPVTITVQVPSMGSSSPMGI

[28] = target: His-tagged FcγRIIa (FcγRIIaR, R&D Systems) (human) (UniProt P12318); experiment: competition ELISA, His-FcγRIIaR, competitor coated HZ 15C1; concentration cell 2.69897
[29] = target: His-tagged FcγRIIa (FcγRIIaR, R&D Systems) (human) (UniProt P12318); experiment: competition ELISA, His-FcγRIIaR, competitor coated HZ 15C1; concentration cell -0.16368
[30] = target: His-tagged FcγRIIa (FcγRIIaR, R&D Systems) (human) (UniProt P12318); experiment: competition ELISA, His-FcγRIIaR, competitor coated HZ 15C1; concentration cell -0.64016
[31] = target: His-tagged FcγRIIa (FcγRIIaR, R&D Systems) (human) (UniProt P12318); experiment: competition ELISA, His-FcγRIIaR, competitor coated HZ 15C1; concentration cell 0.313445
[32] = target: His-tagged FcγRIIa (FcγRIIaR, R&D Systems) (human) (UniProt P12318); experiment: competition ELISA, His-FcγRIIaR, competitor coated HZ 15C1; concentration cell 0.790496
[33] = target: His-tagged FcγRIIa (FcγRIIaR, R&D Systems) (human) (UniProt P12318); experiment: competition ELISA, His-FcγRIIaR, competitor coated HZ 15C1; concentration cell 1.267617
[34] = target: His-tagged FcγRIIa (FcγRIIaR, R&D Systems) (human) (UniProt P12318); experiment: competition ELISA, His-FcγRIIaR, competitor coated HZ 15C1; concentration cell 1.744731

UniProt P11836, sequence (P11836 whole entry): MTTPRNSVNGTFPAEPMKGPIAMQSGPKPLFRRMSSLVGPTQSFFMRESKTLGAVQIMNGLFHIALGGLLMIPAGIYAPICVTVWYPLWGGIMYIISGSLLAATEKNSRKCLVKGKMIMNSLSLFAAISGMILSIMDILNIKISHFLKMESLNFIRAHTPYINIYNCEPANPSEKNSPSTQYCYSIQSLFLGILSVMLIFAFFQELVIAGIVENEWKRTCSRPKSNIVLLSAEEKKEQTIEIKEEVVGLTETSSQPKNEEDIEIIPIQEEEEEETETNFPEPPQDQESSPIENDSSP
UniProt Q61559, sequence (Q61559 22-297 limits assumed): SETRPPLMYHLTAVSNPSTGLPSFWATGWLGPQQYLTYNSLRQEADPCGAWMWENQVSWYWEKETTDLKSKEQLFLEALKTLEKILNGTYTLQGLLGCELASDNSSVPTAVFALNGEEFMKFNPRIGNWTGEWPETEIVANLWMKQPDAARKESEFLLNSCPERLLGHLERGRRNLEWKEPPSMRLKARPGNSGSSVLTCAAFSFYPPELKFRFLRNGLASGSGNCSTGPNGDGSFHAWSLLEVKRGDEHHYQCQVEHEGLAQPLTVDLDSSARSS

Kd [1]: 0.258 nM | flow cytometry signal (name not given) (CD20 on Raji cells [2]): 28.6 and 27.5 and 23.2 | flow cytometry signal (name not given) (CD20 on Raji cells [3]): 2640 and 2560 and 2580 | flow cytometry signal (name not given) (CD20 on Raji cells [4]): 2150 and 2180 and 1920 | flow cytometry signal (name not given) (CD20 on Raji cells [5]): 1500 and 1520 and 1550 | flow cytometry signal (name not given) (CD20 on Raji cells [6]): 14.1 and 12.3 and 11.3 | flow cytometry signal (name not given) (CD20 on Raji cells [7]): 673 (2×) and 644 | flow cytometry signal (name not given) (CD20 on Raji cells [8]): 76.4 and 79.7 and 72.2 | flow cytometry signal (name not given) (CD20 on Raji cells [9]): 241 and 234 and 210 | Kd [10]: 500 nM | Kd [11]: 5.6 nM | absorbance at 450 nm [12]: 0.641 and 0.629 | absorbance at 450 nm [13]: 0.284 and 0.274 | absorbance at 450 nm [14]: 2.27 and 1.92 | absorbance at 450 nm [15]: 1.99 and 1.87 | absorbance at 450 nm [16]: 1.66 and 1.54 | absorbance at 450 nm [17]: 1.52 and 1.49 | absorbance at 450 nm [18]: 1.06 and 1.1 | absorbance at 450 nm [19]: 0.388 and 0.379 and 0.377 | absorbance at 450 nm [20]: 0.143 and 0.141 | absorbance at 450 nm [21]: 0.085 and 0.091 and 0.084 | absorbance at 450 nm [22]: 1.14 and 1.1 (2×) | absorbance at 450 nm [23]: 2.24 and 2.2 and 2.33 | absorbance at 450 nm [24]: 3.05 and 3.04 and 3.16 | absorbance at 450 nm [25]: 3.43 and 3.6 (2×) | absorbance at 450 nm [26]: 3.39 and 3.4 and 3.44 | absorbance at 450 nm [27]: 1.5 and 1.64 and 1.68 | absorbance at 450 nm [28]: 0.684 and 0.732 and 0.671 | absorbance at 450 nm [29]: 2.69 and 3.02 and 3.1 | absorbance at 450 nm [30]: 2.6 and 2.88 and 2.98 | absorbance at 450 nm [31]: 2.57 and 2.96 and 2.93 | absorbance at 450 nm [32]: 2.56 and 2.91 and 2.98 | absorbance at 450 nm [33]: 2.43 and 2.91 and 2.73 | absorbance at 450 nm [34]: 2.11 and 2.46 and 2.36
Substance: 293S anti-CD20 (monoclonal anti-CD20 antibody obinutuzumab, GA101, produced in 293S cells)

Source: patent US20190024066A1
